Target: CDK5RAP2 (human (endogenous in HeLa)) (UniProt Q96SN8)
Assay: co-IP

Sequence of UniProt Q96SN8 (Q96SN8 whole entry): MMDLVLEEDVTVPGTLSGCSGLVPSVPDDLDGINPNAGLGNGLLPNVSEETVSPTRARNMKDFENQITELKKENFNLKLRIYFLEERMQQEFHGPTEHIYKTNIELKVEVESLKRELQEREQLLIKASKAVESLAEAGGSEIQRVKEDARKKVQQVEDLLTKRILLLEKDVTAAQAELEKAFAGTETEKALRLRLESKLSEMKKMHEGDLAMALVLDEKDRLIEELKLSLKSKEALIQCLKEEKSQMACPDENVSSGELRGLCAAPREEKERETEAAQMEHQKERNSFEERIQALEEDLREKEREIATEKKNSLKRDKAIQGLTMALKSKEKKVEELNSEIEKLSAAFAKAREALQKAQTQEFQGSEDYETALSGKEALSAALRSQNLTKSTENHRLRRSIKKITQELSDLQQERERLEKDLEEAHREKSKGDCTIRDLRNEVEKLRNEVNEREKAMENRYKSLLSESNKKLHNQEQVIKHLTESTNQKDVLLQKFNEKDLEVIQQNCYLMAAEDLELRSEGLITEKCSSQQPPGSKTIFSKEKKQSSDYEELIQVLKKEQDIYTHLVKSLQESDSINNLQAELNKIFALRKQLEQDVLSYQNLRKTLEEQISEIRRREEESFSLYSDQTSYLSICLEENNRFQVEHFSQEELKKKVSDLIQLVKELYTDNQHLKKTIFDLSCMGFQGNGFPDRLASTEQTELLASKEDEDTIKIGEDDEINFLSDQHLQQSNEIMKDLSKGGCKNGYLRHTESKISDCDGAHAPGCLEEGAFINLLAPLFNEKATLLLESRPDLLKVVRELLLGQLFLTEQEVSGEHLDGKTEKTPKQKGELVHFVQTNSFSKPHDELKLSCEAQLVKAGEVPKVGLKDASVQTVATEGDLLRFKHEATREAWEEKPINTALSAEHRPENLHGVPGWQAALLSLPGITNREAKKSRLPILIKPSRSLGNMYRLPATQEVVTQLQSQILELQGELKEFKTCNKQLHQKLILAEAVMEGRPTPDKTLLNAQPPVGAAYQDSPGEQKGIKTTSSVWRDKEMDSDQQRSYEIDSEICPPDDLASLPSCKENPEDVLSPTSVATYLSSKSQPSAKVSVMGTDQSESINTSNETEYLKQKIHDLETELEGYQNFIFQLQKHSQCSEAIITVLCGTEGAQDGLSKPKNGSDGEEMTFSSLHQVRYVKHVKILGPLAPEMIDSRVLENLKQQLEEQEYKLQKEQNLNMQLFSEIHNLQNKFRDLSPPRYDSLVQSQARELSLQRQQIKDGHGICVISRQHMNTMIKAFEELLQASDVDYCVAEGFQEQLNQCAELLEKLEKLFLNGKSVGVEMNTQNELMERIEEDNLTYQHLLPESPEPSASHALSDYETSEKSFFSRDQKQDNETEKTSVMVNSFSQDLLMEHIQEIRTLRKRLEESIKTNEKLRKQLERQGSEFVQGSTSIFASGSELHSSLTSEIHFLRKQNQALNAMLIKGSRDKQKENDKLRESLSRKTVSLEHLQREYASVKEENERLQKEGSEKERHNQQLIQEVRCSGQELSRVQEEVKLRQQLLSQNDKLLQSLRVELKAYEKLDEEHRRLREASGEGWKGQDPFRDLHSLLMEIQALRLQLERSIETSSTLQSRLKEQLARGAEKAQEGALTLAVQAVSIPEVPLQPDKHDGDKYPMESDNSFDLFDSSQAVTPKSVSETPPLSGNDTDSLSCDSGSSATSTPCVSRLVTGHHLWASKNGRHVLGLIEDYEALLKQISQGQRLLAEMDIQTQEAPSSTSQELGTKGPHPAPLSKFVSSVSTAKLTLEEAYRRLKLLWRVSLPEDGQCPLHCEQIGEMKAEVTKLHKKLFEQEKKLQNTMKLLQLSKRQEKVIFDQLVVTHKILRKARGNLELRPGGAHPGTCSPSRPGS

- percent of total AKAP450 co-immunoprecipitated by CDK5RAP2 antibody: 40%
Substance: AKAP450, Q99996 1-3907
